According to the supplement of paper PMC9732359:
± gives the uncertainty stated by the source.

Assay: protein stability index of a GFP-peptide fusion (yeast GPS) (PSI 1-4); higher = more stable; sorted into four equal gates, so the index is relative within each strain
How it was run: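 The protein stability index combines read frequencies across sorting gates, each weighted by its gate number and then summed. To obtain those frequencies, a pooled yeast library of GFP fusions to tiled 17-residue yeast protein peptides, on a plasmid also expressing Cherry, was grown to mid-log phase in leucine-free medium. The cells were sorted into four equal gates by GFP/Cherry ratio before plasmid amplification by PCR and Illumina sequencing.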

Sequence	protein stability index (doa10∆)	protein stability index (pdr5∆)	protein stability index (san1∆)	protein stability index (ubr1∆)
TPNMVNSEISNLPKDKS [SSN2]	2.74 ± 0.08	3.08 ± 0.17	2.69 ± 0.087	2.9 ± 0.066
QILQGICKNCSAILLSE [RPO31]	2.17 ± 0.071	2.23 ± 0.061	2.26 ± 0.13	2.43 ± 0.069
PVVQVGIFIKILNDSLI [IRR1]	1.5 ± 0.052	1.49 ± 0.046	1.86 ± 0.067	1.97 ± 0.038
YNNKVGVAASQGSMSER [SIR2]	1.79 ± 0.066	2.04 ± 0.063	2.49 ± 0.12	1.85 ± 0.064
QQTAKKLIPKLYRYRFD [ECM29]	2.24 ± 0.13	2.35 ± 0.1	2.24 ± 0.14	1.21 ± 0.087
VGKDTPFTIYDGEAVAK [PRE5]	2.7 ± 0.075	3 ± 0.064	3.14 ± 0.088	3.15 ± 0.051
KPYDINVVLVTNDRLNR [DIS3]	1.69 ± 0.085	2.92 ± 0.098	2.96 ± 0.094	3.08 ± 0.094
NVFGTLQRHSGISSTLV [YLR018C/POM34]	2.03 ± 0.09	2.01 ± 0.096	1.77 ± 0.23	3.25 ± 0.27
GQLGEMAKCLDNPDQGI [YCS4]	3.13 ± 0.14	3.49 ± 0.12	3.39 ± 0.065	3.29 ± 0.15
KATAAKKAVVKGTNGKK [RPL25]	3.3 ± 0.15	2.05 ± 0.1	1.53 ± 0.17	1.29 ± 0.22
VKQYNKKWPQFYAAVQK [SIN4]	1.49 ± 0.15	1.93 ± 0.1	1.55 ± 0.1	1.68 ± 0.047
IKTFYWLEQFLSCVKND [NUT1]	1.31 ± 0.052	1.26 ± 0.038	1.18 ± 0.061	1.13 ± 0.035
GIPPPYDKKKRVVVPQA [RPL16B]	1.83 ± 0.046	2.2 ± 0.059	1.99 ± 0.12	2.13 ± 0.058
IMDNFLERTAIELKTDW [RPN1]	3 ± 0.2	2.99 ± 0.18	3.07 ± 0.12	2.56 ± 0.15
TARRNVSGDAAALFRLH [SWI3]	2.43 ± 0.093	2.98 ± 0.099	2.78 ± 0.086	1.95 ± 0.063
ETPSRLLLSPDQWYCID [ITC1]	2.8 ± 0.062	3.21 ± 0.085	3.16 ± 0.075	2.81 ± 0.051
ERVTALKNCKISNINIP [SMC1]	3.25 ± 0.1	3.25 ± 0.12	3.1 ± 0.066	3.41 ± 0.11
LISGPRNQILVSITDAP [YMR129W/POM152]	1.68 ± 0.092	1.81 ± 0.084	1.46 ± 0.1	1.68 ± 0.079
QDEAELVEEKTPGLTFN [RPC82]	–	3.62 ± 0.29	–	3.35 ± 0.12
SGWTPFHIACSVGNLEV [NAS6]	1.8 ± 0.095	1.89 ± 0.074	1.68 ± 0.1	1.94 ± 0.11
IIMQADLALKMGVPIYG [FAS2]	1.63 ± 0.12	2.04 ± 0.068	1.79 ± 0.069	2.11 ± 0.044
TANANKPAFSFGATTND [YJL041W/NSP1]	3.01 ± 0.07	2.74 ± 0.051	2.91 ± 0.047	2.88 ± 0.039
PDRHVIFLAERRILPKP [RPS7B]	2.81 ± 0.18	2.75 ± 0.14	2.99 ± 0.096	–
AGSTGFSFGQNNNNTNT [YGR119C/NUP57]	2.52 ± 0.068	2.5 ± 0.072	2.32 ± 0.092	2.32 ± 0.064
LRDYTTVPRIVQLLSKS [RPN2]	1.62 ± 0.046	1.98 ± 0.053	2.26 ± 0.1	1.73 ± 0.045
LGKKKATVDEFPLCVHL [RPL10]	3.1 ± 0.19	2.67 ± 0.14	3 ± 0.29	2.71 ± 0.069
SFNIPRLTFKPWVVYLQ [YMR129W/POM152]	1.2 ± 0.055	1.29 ± 0.055	1.09 ± 0.1	1.04 ± 0.042
